Changes are numbered by the printed parent chain.

By EC50 is commonly meant the concentration at which the effect is half-maximal. The low end stands for higher potency in that assay, the high end for lower potency in that assay.

Test [1] concerns the target T1, Cynomolgus macaques CD200R1 isoform a on CHOK1 cells (CHOK1/cynoCD200R1a) (Cynomolgus macaques).
T1 chain: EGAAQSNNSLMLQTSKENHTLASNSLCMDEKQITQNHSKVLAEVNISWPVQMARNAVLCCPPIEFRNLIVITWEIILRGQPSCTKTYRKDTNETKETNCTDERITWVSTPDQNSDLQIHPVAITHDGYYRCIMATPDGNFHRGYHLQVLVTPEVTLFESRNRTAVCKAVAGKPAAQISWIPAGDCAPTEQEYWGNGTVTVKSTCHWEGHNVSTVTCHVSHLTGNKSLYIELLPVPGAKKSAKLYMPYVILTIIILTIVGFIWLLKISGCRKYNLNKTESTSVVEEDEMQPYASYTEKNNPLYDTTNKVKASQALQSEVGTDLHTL
The test can be described thus: flow cytometry, CHOK1/cynoCD200R1a cells; table beside the curves, head without unit, x axis Log [Ab] (nM). The method, then:
This example is intended to investigate the in vitro binding activity of human anti-CD200R1 monoclonal antibodies to human/Cynomolgus macaques CD200R1a expressed on the surface of cells. The anti-CD200R1 antibodies were produced as described in Example 3.4 and the binding experiments at the cell level were performed using CHOK1/hCD200R1a and CHOK1-cynoCD200R1a.
Briefly, CHOK1/hCD200R1a cells and CHOK1-cynoCD200R1a cells were digested, and collected, and then were resuspended in PBS containing 2% BSA, respectively. The cell density was adjusted to 1×10⁶ cells/mL. The cells were seeded in a 96-well V-bottom plate (Corning, #3894) at 100 μL/well, followed by the addition of test antibodies and reference antibodies in a series diluted concentration, each at 100 μL/well. The cells were incubated away from light at 4° C. for 1 h. Thereafter, the cells in each well were rinsed twice with 100 μL of pre-cooled PBS containing 2% BSA, and centrifuged at 500 g at 4° C. for 5 min, and then the supernatant was discarded. 100 μL of fluorescent secondary antibody (Alexa Fluor 488-conjugated AffiniPure Goat Anti-Human IgG, Fcγ Fragment Specific, Jackson, #109-545-098, diluted in a 1:1000 ratio) was added in each well, and the plate was incubated away from light at 4° C. for 1 h. The cells in each well were rinsed twice with 100 μL of pre-cooled PBS containing 2% BSA, and centrifuged at 500 g at 4° C. for 5 min, and then the supernatant was discarded. Finally, the cells in each well were resuspended in 200 μL of pre-cooled PBS containing 2% BSA, and the fluorescence signal values were read using a BD CantoII flow cytometer.
(In general: Flow cytometry measures light scatter and fluorescence of single cells or particles in a stream.)

Test [2] deals with T2, CD200R1a on PathHunter Jurkat CD200R1a signaling cells (Eurofins DiscoverX, 93-1136C19) (human, UniProt Q8TD46 25-348).
T2 sequence: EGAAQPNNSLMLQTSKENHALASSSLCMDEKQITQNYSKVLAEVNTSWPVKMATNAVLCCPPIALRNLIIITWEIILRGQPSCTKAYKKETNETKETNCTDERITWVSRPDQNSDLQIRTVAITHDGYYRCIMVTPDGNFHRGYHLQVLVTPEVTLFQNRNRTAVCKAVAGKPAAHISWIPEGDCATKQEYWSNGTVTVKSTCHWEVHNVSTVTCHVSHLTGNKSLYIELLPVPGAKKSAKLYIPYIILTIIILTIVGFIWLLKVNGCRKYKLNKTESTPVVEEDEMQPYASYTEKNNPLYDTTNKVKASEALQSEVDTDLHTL
The test can be described thus: cell-based or functional assay.

The target of test [3] is T3, cell surface glycoprotein CD200 receptor 2 isoform 1 precursor CD200R1L recombinant protein (Sino … (human, UniProt Q6Q8B3 24-239)).
T3 construct: Bought protein; also called hCD200R1L; recombinant human CD200R1L protein
T3 sequence: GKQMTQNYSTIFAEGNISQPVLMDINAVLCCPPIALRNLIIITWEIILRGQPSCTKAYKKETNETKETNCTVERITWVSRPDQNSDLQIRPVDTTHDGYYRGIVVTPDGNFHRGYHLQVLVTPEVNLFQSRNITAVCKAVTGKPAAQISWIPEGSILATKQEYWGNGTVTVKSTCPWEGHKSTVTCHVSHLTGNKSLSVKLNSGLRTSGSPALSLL
In words: ELISA on plate-coated recombinant human CD200R1L. The protocol: In specific, the cell surface glycoprotein CD200 receptor 2 isoform 1 precursor CD200R1L recombinant protein (Sino Biologicals, 11620-H08H, SEQ ID NO:174) were diluted with PBS to 1 μg/mL, and added to a 96-well plate (Corning, #9018) at 100 μl per well, and incubated overnight at 4° C. After the liquid was discarded, the plate was washed 3 times with PBST buffer (pH 7.4, containing 0.05% tween-20), 250 μl 2% BSA blocking solution was added into the plate and incubated at 37° C. for 1 hour. The blocking solution was discarded and the plate was washed 3 times with PBST buffer (pH 7.4, containing 0.05% Tween-20). The anti-CD200R1 antibodies were diluted and added at 100 µl/well, incubated at 37° C. for 1 hour, with isotype antibody as a control. After the plate was washed 3 times with PBST buffer (pH 7.4, containing 0.05% Tween-20), goat anti-human HRP secondary antibody (Invitrogen, #A18805) was diluted 5000 times, added into the plate and incubated for 1 hour at 37° C. in the dark. After the plate was washed with PBST buffer (pH 7.4, containing 0.05% tween-20) for 3 times, 100p/well of TMB (Biopanda, #TMB-S-003) was add and the plate was placed in the dark at room temperature for about 30 minutes; stop solution (BBI life sciences, #E661006-0200) was added at 50p/well to each well to terminate the reaction, and the absorbance (OD450) at 450 nm was measured in a microplate reader (PerkinElemer, #Enspire).
(In general: ELISA stands for enzyme-linked immunosorbent assay.)

B1: PR006480 (antibody, human IgG1, kappa, L234A L235A)
heavy: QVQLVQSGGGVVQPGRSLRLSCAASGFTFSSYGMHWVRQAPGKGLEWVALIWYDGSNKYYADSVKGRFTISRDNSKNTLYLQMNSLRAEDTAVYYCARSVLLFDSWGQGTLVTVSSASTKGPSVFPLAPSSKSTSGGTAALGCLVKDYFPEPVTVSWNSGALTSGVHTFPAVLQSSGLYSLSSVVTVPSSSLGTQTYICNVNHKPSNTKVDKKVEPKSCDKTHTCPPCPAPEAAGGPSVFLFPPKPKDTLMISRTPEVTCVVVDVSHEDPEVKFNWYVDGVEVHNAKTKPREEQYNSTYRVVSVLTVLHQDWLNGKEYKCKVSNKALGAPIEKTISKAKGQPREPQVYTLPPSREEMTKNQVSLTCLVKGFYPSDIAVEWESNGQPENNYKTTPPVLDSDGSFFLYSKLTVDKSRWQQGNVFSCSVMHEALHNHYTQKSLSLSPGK
light: DIQMTQSPPSLSASVGDRVTITCRASQSISSYLNWFQQKAGKAPKLLISATSNLQSGVPSRFSGSGSGTDFTLTISSLQPEDLATYYCQQSYSSPYTFGQGTKVEIKRTVAAPSVFIFPPSDEQLKSGTASVVCLLNNFYPREAKVQWKVDNALQSGNSQESVTEQDSKDSTYSLSSTLTLSKADYEKHKVYACEVTHQGLSSPVTKSFNRGEC
notes: also called PR6480
In turn, B1 had an EC50 in test [1] of 2.98 nM. Besides, the “IC50 of the inhibition of CD200-induced PathHunter Jurkat CD200R1a luminescence (CHOK1/hCD200 cells as CD200 source); head without unit, x axis Log [Ab] (nM)” value in test [2] came to 4.55 nM.

B2: PR007223 (antibody, human IgG1, kappa)
heavy: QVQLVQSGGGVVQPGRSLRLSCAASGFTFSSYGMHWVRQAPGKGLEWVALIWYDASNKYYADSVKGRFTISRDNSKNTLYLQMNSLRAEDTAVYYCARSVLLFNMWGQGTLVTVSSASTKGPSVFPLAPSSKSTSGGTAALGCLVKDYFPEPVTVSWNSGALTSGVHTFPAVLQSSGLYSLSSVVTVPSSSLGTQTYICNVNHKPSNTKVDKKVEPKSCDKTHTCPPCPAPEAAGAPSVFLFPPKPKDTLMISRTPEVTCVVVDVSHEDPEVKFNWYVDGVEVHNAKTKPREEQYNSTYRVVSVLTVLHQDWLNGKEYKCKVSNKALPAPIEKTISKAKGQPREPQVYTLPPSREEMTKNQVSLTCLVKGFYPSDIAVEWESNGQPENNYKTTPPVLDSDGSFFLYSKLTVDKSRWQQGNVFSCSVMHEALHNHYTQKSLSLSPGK
light: B1 light with M4L, S91T
notes: PTM variant of PR006895 (human IgG1)
B2: the binding result in test [3] is “no binding (tested: 100 nM)”.

B3: PR007221 (antibody, human IgG1, kappa)
heavy: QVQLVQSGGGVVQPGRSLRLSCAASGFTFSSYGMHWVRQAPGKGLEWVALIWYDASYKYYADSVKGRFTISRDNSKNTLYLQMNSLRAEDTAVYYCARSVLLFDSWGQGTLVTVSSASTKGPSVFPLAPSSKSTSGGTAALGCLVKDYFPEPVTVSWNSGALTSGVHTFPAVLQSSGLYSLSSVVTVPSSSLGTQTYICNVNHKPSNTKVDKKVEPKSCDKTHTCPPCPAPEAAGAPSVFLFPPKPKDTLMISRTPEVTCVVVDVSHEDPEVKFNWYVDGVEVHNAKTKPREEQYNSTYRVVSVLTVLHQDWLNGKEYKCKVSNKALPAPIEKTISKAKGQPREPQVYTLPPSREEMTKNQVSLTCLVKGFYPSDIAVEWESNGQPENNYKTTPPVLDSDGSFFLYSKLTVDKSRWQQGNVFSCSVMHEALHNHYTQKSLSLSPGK
light: B1 light with M4L, S91T, Y92L
notes: as for B2
In the case of B3, in test [3], the binding result was “no binding (tested: 100 nM)”.

B4: PR005509 (antibody, human IgG1, kappa, L234A L235A, V domains shown)
VH: QVQLVESGGGVVQPGRSLRLSCAASGFTFSSYGFHWVRQAPGKGLEWLGLIWSDGSNKYYADSVKGRFTISRDNSKNTLYLQMNSLRAEDTAVYYCARDRIVGAGFDYWGQGTLVTVSS
VL: not shown
Regarding B4, the “IC50 of the inhibition of CD200-induced PathHunter Jurkat CD200R1a luminescence (CHOK1/hCD200 cells as CD200 source); head without unit, x axis Log [Ab] (nM)” value in test [2] came to 2.47 nM.

B5: PR005474 (antibody, human IgG1, kappa, L234A L235A, V domains shown)
VH: B4 VH with G26A, F34M, L48V, G49A, S53N, Y59F, Y80F, V102L
VL: not shown
In test [1], B5 had an EC50 of 3.34 nM. Moreover, in test [2], the “IC50 of the inhibition of CD200-induced PathHunter Jurkat CD200R1a luminescence (CHOK1/hCD200 cells as CD200 source); head without unit, x axis Log [Ab] (nM)” value came out at 7.75 nM.

B6: PR007973 (antibody, human IgG1, kappa, V domains shown)
VH: B4 VH with L50I, G55A, A104E
VL: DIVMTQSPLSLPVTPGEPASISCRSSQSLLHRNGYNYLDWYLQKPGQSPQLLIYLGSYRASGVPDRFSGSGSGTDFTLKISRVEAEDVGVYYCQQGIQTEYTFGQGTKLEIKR
notes: PTM variant of PR006839 (human IgG1)
Turning to B6, the binding result in test [3] is “no binding (tested: 100 nM)”.

B7: PR002906 (antibody, V domains shown)
VH: QVQLQESGPGLVKPSETLSLTCTVSGYTITSGYDWSWIRQPPGKGLEWIGYINYGGSTNYKPSLGSRVTISVDTSKNQFSLKLSSVTAADTAVYYCARYNEYKSYIYDWYFDFWGQGTLVTVSS
VL: DIQMTQSPSSLSASVGDRVTITCKASKNIRSYLAWYQQKPGKAPKLLIYSGSTLHSGVPSRFSGSGSGTDFTLTISSLQPEDFATYYCQQHHEYPLTFGQGTKVEIKR
notes: also called recombinant IgG1 antibody of huDX182
In turn, B7 gave an EC50 in test [1] of 20.8 nM.

The values above are taken from patent US20250313626A1 (HARBOUR BIOMED SHANGHAI, published 2025).
